Measured values reported in the DeepSol protein solubility set.

Test: soluble on expression in E. coli; label from the status in PepcDB or PDB records

Row | Sequence | soluble on expression in E. coli
1 | MSTHASAHGSTHTSTHHPIAVIGAGLGGLAAARVLHVHGIEAAVYEADASPTARHQGGMLDIHGESGQAALRAAGLYEEFRAIVHPGGEATRILDKDGTVRHEEGDRPEEGDRPEVDRNDLRRILLDSLPEGTIRWGAKVTGARALGGGRHEVTLADGSVFTTDVLIGADGAWSRIRPLLSPATPAYTGISFVEADLHEAATRHRAAAELVGGGSMFALAEGKGILTHLETDGSVHAYVALKADEDWLSTIDFTGTDTDTAKKTLLTHFEDWDDRLRALITDADGALVPRLIHALPVDHRWERTAGVTLLGDAAHLMSPFAGEGANLALLDGAELATALAAHPADPESALTAYERSLFPRSHRAAGESAANLTFMFGPNALEELVGMMSGHEPSDRLEHHHHHH | soluble
2 | MTHQIVTTQYGKVKGTTENGVHKWKGIPYAKPPVGQWRFKAPEPPEVWEDVLDATAYGPICPQPSDLLSLSYTELPRQSEDCLYVNVFAPDTPSQNLPVMVWIHGGAFYLGAGSEPLYDGSKLAAQGEVIVVTLNYRLGPFGFLHLSSFDEAYSDNLGLLDQAAALKWVRENISAFGGDPDNVTVFGESAGGMSIAALLAMPAAKGLFQKAIMESGASRTMTKEQAASTAAAFLQVLGINESQLDRLHTVAAEDLLKAADQLRIAEKENIFQLFFQPALDPKTLPEEPEKSIAEGAASGIPLLIGTTRDEGYLFFTPDSDVHSQETLDAALEYLLGKPLAEKAADLYPRSLESQIHMMTDLLFWRPAVAYASAQSHYAPVWMYRFDWHPEKPPYNKAFHALELPFVFGNLDGLERMAKAEITDEVKQLSHTIQSAWITFAKTGNPSTEAVNWPAYHEETRETVILDSEITIENDPESEKRQKLFPSKGE | soluble
3 | GPGSMSSGSHRSPSAMRPSTRISSIGATSNRSSTHNTETELDPFVASLSRVTVYTDIPDKTLQRIMSITVDAYNRFVLVPTRNTWRKEEGSRKELEREVERTALRDIAQAVKVNVEAALGGTWHVIYGRSFATYVTHQQRCFCHFQLDGANVVVWRHGG | soluble
4 | MVDQQDTFAEYFKNWYIFYKKPKVSKVTLNRYQYTYNVINEYFGNKLLKDITRANYQKFIVKYGQNHSPNTMKMINNCIKACVKNAVYDEEIKKDFTYNIELISNRDNVVQLEHHHHHH | soluble
5 | MAHHHHHHMVSASPPQRDRGSPPTRPLSEPQDVDAPAAGTVQALRQAVEAQEACVRLLRARQAAREALLRHTRRLLTADDSIEWPGSVEQLVRQVEASLHKLQQAHSEAAAPAATTADNVAPTSAPSRSPRNAAGDADPSADPLARIFHSGVEAQLAAVAEPPHTLPASTLASRSSTAKRRKEAGESGLTNAVSTTSPPPGGPFPPRSAAMTALLARSASRQEAGHAAMLAALSALELSLMSNSGATEVGRDVHNAEPAWLRQVDSDSANDDDAAPEEQQQEKEGNRGDIASSDYSDDFECGSSTSSGADD | not soluble
6 | MELVHGISTHFIQSKKFKTNKITVRFTAPLSLDTIAGHMLSASMLETANQMYPTSQDLRRHLASLYGTDMSTNCFRRGQSHIIELTFTYVRDEFLSRKNVLTSQILELVKETLFSPVVVDNGFDPALFEIEKKQLLASLAADMDDSFYFAHKELDKLFFHDERLQLEYSDLRNRILAETPQSSYSCFQEFLANDRIDFFFLGDFNEVEIQNVLESFGFKGRKGDVKVQYCQPYSNILQEGMVRKNVGQSILELGYHYCSKYGDEQHLPMIVMNGLLGGFAHSKLFTNVRENAGLAYTISSELDLFSGFLRMYAGINRENRNQARKMMNNQLLDLKKGYFTEFELNQTKEMIRWSLLLSQDNQSSLIERAYQNALFGKSSADFKSWIAKLEQIDKDAICRVANNVKLQAIYFMEGIE | not soluble
7 | MHDISSLTTRTKTLPPLRVGVGGPVGSGKTTLLEMVCKAMYPQFDLIAITNDIYTKEDQRLLTLSGALPPERILGVETGGCPHTAIREDASINLIAIDQMLEQFPDADIVFVESGGDNLAATFSPELSDLTLYIIDVASGEKIPRKGGPGITKSDLFIINKTDLAPYVGADLAVMEADTRRMRGDKPFVMCNLKTGDGLDQVIAFLKTEGLFRGLEHHHHHH | soluble
8 | DCYCRIPACIAGEKKYGTCIYQGKLWAFCC | soluble
9 | MAALIDTGIFFGFYSLKDVHHMDSVAIVVHAVEGKWGRLFVTNHILDETLTLLKYKKLPADKFLEGFVESGVLNIIYTDDEVERKALEVFKARVYEKGFSYTDAISEVVAEELKLKLISYDSRFSLPTIGRDYWKSLDESERKRISAILREKGIDG | soluble
10 | MGSDKIHHHHHHMHFLDDSLLPENQEKLVIQVAPYGPQWLPGDSDDIPVTMDEQVQKAVDCYNAGATVLHVHVREADGKGSKRLSMFNEMLARLREAVPGMVLQVGGSISFAPENDNQAAKWLNDDTRHMLAELSPRPDQVTVAINTSQMNVMELMTEADVAGTSLTNPALQAAYRDMIVPSNPSWHVEHIKRLVANGIQPHFMLGNLTQLETVERLIRRGVYTGPLVLNYVAIGGGAAGLHPADMVEFARRTPDGAVLTVETLNRNVVPLNTMAIAMGLHVRVGIEDTLYGPDGKRATSVQQIEKMVNIARELNREIASGTDAHRIYQTGTRWSSTEETLNRLGMVPNRQPEQRGVPPRKAA | not soluble
11 | MKRVFVFQDFKSQKFWSIDVRGTDVIVNYGKLGTDGQTQVKNFSSAGEAEKAAGKLIAEKTKKGYVETLEEVAKEMKVEAKKYALSYDEAEEGVNLMDKILKDKKLPSLKQITIGCWGYEGEDCSDIADGIVENKEKFAHFEGLFWGDIDFEEQEISWIEQVDLSPVLDAMPLLNNLKIKGTNNLSIGKKPRPNLKSLEIISGGLPDSVVEDILGSDLPNLEKLVLYVGVEDYGFDGDMNVFRPLFSKDRFPNLKWLGIVDAEEQNVVVEMFLESDILPQLETMDISAGVLTDEGARLLLDHVDKIKHLKFINMKYNYLSDEMKKELQKSLPMKIDVSDSQEYDDDYSYPMITELEHHHHHH | soluble
12 | MSLAKIVFCILDGLGDTTHTLPDGRKGTCLEMAKRPTLDAIAKAGTVGLNDSVSPGYPCGSDTAHLSLFGYPPFTYYNGRGAFEALGGGMDMEPGSIAFKSNFSTMYGECVKYRRCDRHFEVEGPILCKDLDGIKIPEFPEVKVSVVYATEHRCAVKILAPGLSDKIAGTDPIHDDLDLIKSYPLDDSPEAAYTAKVVNALSDTFRKALENHPINIERRKQGKEVANVILLRGPGMRLSCQPFGERHNIKAFLIAPTAIIAGLGISVGLPVIKVKGATGDMDSNFNAKAIAAAQELDGDKYDMGIIHMKGIDDAAHDGKIAVKTELIERADKAIHLLIEKLAELEEKNGDRFIVAVTADHSTSCTWKDHCFEPVPFIVAEVAKVAQELGIKHVDQSKKPELVPTDSVHEFTETAACKGSLGRFCGAQMMNLLFHFAGRKQEEGHHHHHH | soluble
13 | SYYHHHHHHDYDIPTTENLYFQGAMGSFGSKDAAADGKPLVVTTIGMIADAVKNIAQGDVHLKGLMGPGVDPHLYTATAGDVEWLGNADLILYNGLHLETKMGEVFSKLRGSRLVVAVSETIPVSQRLSLEEAEFDPHVWFDVKLWSYSVKAVYESLCKLLPGKTREFTQRYQAYQQQLDKLDAYVRRKAQSLPAERRVLVTAHDAFGYFSRAYGFEVKGLQGVSTASEASAHDMQELAAFIAQRKLPAIFIESSIPHKNVEALRDAVQARGHVVQIGGELFSDAMGDAGTSEGTYVGMVTHNIDTIVAALAR | soluble
14 | MAHHHHHHMGVGFQSKKLQNFCHSGAGEMCALENCIPRWGSFPCNAPGLTPVYELSSFENVELPLIFQKSNIGDLLASTSDSVGQLNGFQARHSNTEGIKSQVSYTSVALSTTNRENLFGWVDCAALPLCSSSTAGASILLVTLLTRESRGKSCMCILDDLVCQLSNGPFNWGCGGDCHDLISISLPSEPRNHAACPIILPIAKLSRKEIWLREAAPKMDVETIIYEGDNQQHLVDDVANGTNAGSCAVMEAGCRPETALGPENVKYGDNESVTQCEVTVDITPSTEPSARCLHFSECTTPVSSNRSFMEPIPLSNMESKALRCRKFDGTSYEVLRRRAHSDALSLILKKYSEHF | not soluble
15 | CLEDILSATKMVINLCLPQFRPRIHCNKISADGYEVENLISEDLTKRSHGFRTEYFIKPPVYVTVSFPFNVEICRINIDLTAGGGQNVTGLEMYTSASSSRVSWNTPQCRTLGPAEPSVPDKEAFTLVGKVLLKNQSQVVFSHRGFKARPPFGAMEATLPSPAVVAQELWNKGALSLSHVAHLRICITHVTGGGIPCIKRLEVWGQPAKTCSQEVIDSILLVTSENLPQDVALQAPALPMESDCDPGDQPESQQAPSSLQKLAEIIQDVPEEFLDPITLEIMPCPMLLPSGKVIDQSTLEKCNRSEATWGRVPSDPFTGVAFTPHSQPLPHPSLKARIDHFLLQHSIPGCHLLGRAQTALAVIPSSIVLPSQKRKIEQAEHVPDSNFGVNASCFSATSPLVLPTTSEHTAKKMKATNEPSLTHMDCSTGPLSHEQKLSQSLEIALASTLGSMPSFTARLTRGQLQHLGTRGSNTSWRPGTGSEQPGSILGPECASCKRVFSPYFKKEPVYQLPCGHLLCRPCLGEKQRSLPMTCTACQRPVASQDVLRVHF | soluble
16 | MSICDPALRNALRTLKLSGMLDTLDARLAQTRNGDLGHLEFLQALREDEIARRESAALTRRLRRAKFEAQATFEDFDFTANPKLPGAMLRDLAALRWLDAGESVILHGPVGVGKTHVAQALVHAVARRGGDVRFAKTSRMLSDLAGGHADRSWGQRIREYTKPLVLILDDFAMREHTAMHADDLYELISDRAITGKPLILTSNRAPNNWYGLFPNPVVAESLLDRLINTSHQILMDGPSYRPRKRPGRTTS | not soluble
17 | TNAVNIVMRQPTTPNFSSALNITSANEGGSAMQIRGVEKALGTLKITHENPSVDKEYDENAAALSIDIVKKQKGGKGTAAQGIYINSTSGTAGKMLRIRNKNKDKFYVGPDGDFWSCASSIVDGNLTVKDPTSGKHAATKDYVDEKIAELKKLILKK | soluble
18 | MYSERPPLDPHPLSPYMAWTGYRNRDAILDVLKGVFPRDKSDVLEFAAGSGMHAHYFAQHFAHLTFHPSDSDEDLLPHIEERTRQSGLSNVARPRRLDLTQPETWPAGEKFHAIYCINVCQVAPVSIVGGIMACSSRILADGGFLFIYGPFLDYGRFASDFDEEFDRLLRSTGEEGWSLKDIAELDRAAGRHGMRLDDEIDMPSNDFALIYRRA | not soluble
19 | MSRLVLLISLVIVVASAAAPQCEVCKKVLDDVMAKVPAGDKSKPDAIGKVIREHCETTRNKENKFCFYIGALPESATSIMNEVTKPLSWSMPTEKVCLEKLKGKDAQICELKYDKPLDWKTIDLKKMRVKELKNILGEWGEVCKGCTEKAELIKRIEELKPKYVKEEL | not soluble
20 | MSDWFQLDKEYMMSTYCRTKIAIERGEGCKLYDVDGKEYLDLFSGVGVNVLGYNHPKIVQTTMDQVTKSLHLPFHFLNPVAIEYAKKLVDCSLKNGKVFFTNSGTEATETTLKLIDKYRAITNEEREGIVVLKNSFHGRTLGALHFTRQESVYQNFPTTSIPVYEVERENIEQLEETIINENPIAILLEPVLGSGGIYPLSREYLHGVQNLCDKYNVILIVDEVQSGMGRTGKLFAYQNFNITPHIIQIGKGAGGGIPLGGIIVGEKLCDVFAPGDHGTTFAHSSMGTALGLTVLNTLLDDGLMQEAYEMSLYLNDKLQEIQKENSYYIEEVRHAGMMFGISLNDTNENVKKLQVELMEKGILVDVTQGNIIRLLPPYIITKEEIDTFITQFIFCIDKVAAVVSA | not soluble
